Measured values from PMC4899126.

Legend:
[1] = molecular target: E.r. RT domain (group II intron maturase from Eubacterium rectale M104/1, residues 1-293) (Eubacterium rectale M104/1); assay: SEC-MALS
[2] = molecular target: E.r. RT domain (group II intron maturase from Eubacterium rectale M104/1, residues 1-293) (Eubacterium rectale M104/1); assay: SEC-MALS; remark: listed apart in the source
[3] = molecular target: E.r. RT domain (group II intron maturase from Eubacterium rectale M104/1, residues 1-293) (Eubacterium rectale M104/1); assay: AUC
[4] = molecular target: E.r. RT domain (group II intron maturase from Eubacterium rectale M104/1, residues 1-293) (Eubacterium rectale M104/1); assay: AUC; remark: listed apart in the source

Measured: stoichiometry N

E.r. RT domain (group II intron maturase from Eubacterium rectale M104/1, residues 1-293) (domain or fragment)
2: all assays above
